# Experimental data from US20250051476A1 (ABDERA THERAPEUTICS, published 2025).
# Positions count from the first letter of the chain named.
# T1: human DLL3 (human, UniProt Q9NYJ7 27-492, limits assumed)
# T1 construct: also called hDLL3; Delta-like protein 3
# T1 sequence (looked up): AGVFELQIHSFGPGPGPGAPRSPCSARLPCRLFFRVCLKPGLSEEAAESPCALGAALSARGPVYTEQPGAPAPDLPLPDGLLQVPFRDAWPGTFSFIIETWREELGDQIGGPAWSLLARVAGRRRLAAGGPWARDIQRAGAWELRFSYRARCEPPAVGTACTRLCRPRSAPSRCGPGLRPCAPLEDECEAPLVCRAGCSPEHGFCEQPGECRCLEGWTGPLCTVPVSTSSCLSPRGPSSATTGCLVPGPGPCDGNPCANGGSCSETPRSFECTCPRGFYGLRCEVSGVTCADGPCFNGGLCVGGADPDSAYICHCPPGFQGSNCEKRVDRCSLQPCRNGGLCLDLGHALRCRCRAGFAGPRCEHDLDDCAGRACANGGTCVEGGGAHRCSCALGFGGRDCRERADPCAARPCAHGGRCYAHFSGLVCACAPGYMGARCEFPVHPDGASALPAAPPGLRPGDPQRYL
# T2: mouse DLL3 (mouse, UniProt O88516 25-477, limits assumed)
# T2 construct: also called mDLL3; murine DLL3
# T2 sequence (looked up): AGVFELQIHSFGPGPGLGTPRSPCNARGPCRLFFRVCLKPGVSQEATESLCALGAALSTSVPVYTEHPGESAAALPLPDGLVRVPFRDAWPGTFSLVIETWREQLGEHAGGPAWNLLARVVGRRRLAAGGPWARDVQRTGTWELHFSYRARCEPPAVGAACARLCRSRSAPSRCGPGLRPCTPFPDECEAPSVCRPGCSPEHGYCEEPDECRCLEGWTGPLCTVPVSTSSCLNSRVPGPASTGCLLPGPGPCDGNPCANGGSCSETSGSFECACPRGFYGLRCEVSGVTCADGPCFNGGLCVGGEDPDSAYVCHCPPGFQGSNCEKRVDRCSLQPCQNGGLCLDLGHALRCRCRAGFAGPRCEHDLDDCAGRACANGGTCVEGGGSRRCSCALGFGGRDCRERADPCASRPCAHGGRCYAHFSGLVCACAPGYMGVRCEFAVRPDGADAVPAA
# T3: DLL3 on cells (SHP-77, NCI-H82, HEK-DLL3, membrane proteome array cells) (human, UniProt Q9NYJ7 27-618)
# T3 construct: whole, on cells; also called hDLL3
# T3 sequence (looked up): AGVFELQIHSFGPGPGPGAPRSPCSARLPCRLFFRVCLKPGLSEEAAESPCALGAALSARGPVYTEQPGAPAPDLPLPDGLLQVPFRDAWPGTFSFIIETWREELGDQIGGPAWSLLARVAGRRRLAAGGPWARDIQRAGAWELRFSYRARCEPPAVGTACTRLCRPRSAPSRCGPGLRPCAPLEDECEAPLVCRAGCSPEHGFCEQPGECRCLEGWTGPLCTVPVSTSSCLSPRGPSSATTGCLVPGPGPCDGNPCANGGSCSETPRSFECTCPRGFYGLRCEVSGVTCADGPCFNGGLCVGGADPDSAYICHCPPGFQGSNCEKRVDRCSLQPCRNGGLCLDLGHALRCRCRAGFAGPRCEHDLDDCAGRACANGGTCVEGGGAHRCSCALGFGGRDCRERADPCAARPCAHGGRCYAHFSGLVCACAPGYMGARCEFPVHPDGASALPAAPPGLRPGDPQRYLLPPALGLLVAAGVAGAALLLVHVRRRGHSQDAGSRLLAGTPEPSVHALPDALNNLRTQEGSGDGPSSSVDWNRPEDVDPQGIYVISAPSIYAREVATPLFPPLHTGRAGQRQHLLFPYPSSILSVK
# B1: 100_zu4 (Fc fusion)
# chain: QVQLVESGGGLVQPGGSLRLSCAASGIVFNSDVMGWYRQAPGQPRELVATITGGGSTNYATSVKGRFTISRDNSKNTLYLQMNSLRAEDTAVYYCAARRGDSMLAFWGQGTLVTVSSEPKSSDKTHTCPPCPAPEAEGAPSVFLFPPKPKDTLMISRTPEVTCVVVDVSHEDPEVKFNWYVDGVEVHNAKTKPREEQYNSTYRVVSVLTVLHQDWLNGKEYKCKVSNKALPSSIEKTISKAKGQPREPQVYTLPPSREEMTKNQVSLTCLVKGFYPSDIAVEWESNGQPENNYKTTPPVLDSDGSFFLYSKLTVDKSRWQQGNVFSCSVMHEALHNQYTQKSLSLSPG
# notes: Humanized VHH-Fc
# B2: 100_zu5 (Fc fusion)
# chain: B1 chain with A40V, Q43K
# notes: Humanized VHH-Fc
# B3: 100_zu3 (Fc fusion)
# chain: B1 chain with P44G, R45L
# notes: Humanized VHH-Fc
# B4: 100_zu2 (Fc fusion)
# chain: B1 chain with Y37F, P44G, R45L
# notes: Humanized VHH-Fc
# B5: 186_zu3 (Fc fusion)
# chain: QVQLVESGGGLVQPGGSLRLSCAASGFDFSTYTVNWYRQAPGQGLEKVARISSTGTTTNYANSAKGRFTISRDNSKNTLYLQMNSLRAEDTAVYYCAAERFDSNYWGQGTLVTVSSEPKSSDKTHTCPPCPAPEAEGAPSVFLFPPKPKDTLMISRTPEVTCVVVDVSHEDPEVKFNWYVDGVEVHNAKTKPREEQYNSTYRVVSVLTVLHQDWLNGKEYKCKVSNKALPSSIEKTISKAKGQPREPQVYTLPPSREEMTKNQVSLTCLVKGFYPSDIAVEWESNGQPENNYKTTPPVLDSDGSFFLYSKLTVDKSRWQQGNVFSCSVMHEALHNQYTQKSLSLSPG
# notes: Humanized VHH-Fc
# B6: 186_zu5 (Fc fusion)
# chain: B5 chain with Q43K, G44E, L45R
# notes: Humanized VHH-Fc
# B7: 186_zu4 (Fc fusion)
# chain: B5 chain with G44E, L45R
# notes: Humanized VHH-Fc
# B8: 24_zu4 (Fc fusion)
# chain: QVQLVESGGGLVQPGGSLRLSCAASGFTFSSYRINWYRQAPGQGRELVASITDTGSTNYADSVKGRFTISRDNSKNTLYLQMNSLRAEDTAVYYCAAPTIAAYWGQGTLVTVSSEPKSSDKTHTCPPCPAPEAEGAPSVFLFPPKPKDTLMISRTPEVTCVVVDVSHEDPEVKFNWYVDGVEVHNAKTKPREEQYNSTYRVVSVLTVLHQDWLNGKEYKCKVSNKALPSSIEKTISKAKGQPREPQVYTLPPSREEMTKNQVSLTCLVKGFYPSDIAVEWESNGQPENNYKTTPPVLDSDGSFFLYSKLTVDKSRWQQGNVFSCSVMHEALHNQYTQKSLSLSPG
# notes: Humanized VHH-Fc
# B9: 24_zu1 (Fc fusion)
# chain: B8 chain with Y37F, R45L, L47A
# notes: Humanized VHH-Fc
# B10: 24_zu2 (Fc fusion)
# chain: B8 chain with Y37F, R45L
# notes: Humanized VHH-Fc
# B11: 24_zu3 (Fc fusion)
# chain: B8 chain with R45L
# notes: Humanized VHH-Fc
# B12: 24_zu5 (Fc fusion)
# chain: B8 chain with A40P, Q43K, A49G
# notes: Humanized VHH-Fc
# B13: 107_zu4 (Fc fusion)
# chain: QVQLVESGGGLVQPGGSLRLSCAASDRTFSSYAVGWFRQAPGQEREFVAAISWNGGRTLYTDSVTGRFTISRDNSKNTLYLQMNSLRAEDTAVYYCAARPAAPTRRLEYDYWGQGTLVTVSSEPKSSDKTHTCPPCPAPEAEGAPSVFLFPPKPKDTLMISRTPEVTCVVVDVSHEDPEVKFNWYVDGVEVHNAKTKPREEQYNSTYRVVSVLTVLHQDWLNGKEYKCKVSNKALPSSIEKTISKAKGQPREPQVYTLPPSREEMTKNQVSLTCLVKGFYPSDIAVEWESNGQPENNYKTTPPVLDSDGSFFLYSKLTVDKSRWQQGNVFSCSVMHEALHNQYTQKSLSLSPG
# notes: Humanized VHH-Fc
# B14: 107_zu3 (Fc fusion)
# chain: B13 chain with E44G
# notes: Humanized VHH-Fc
# B15: 107_zu1 (Fc fusion)
# chain: B13 chain with E44G, R45L, F47A
# notes: Humanized VHH-Fc
# B16: 107_zu5 (Fc fusion)
# chain: B13 chain with Q43K
# notes: Humanized VHH-Fc
# B17: 126_zu4 (Fc fusion)
# chain: QVQLVESGGGLVQPGGSLRLSCAASGITFSMYSMSWYRQAPGQQRELVAATTTFGSTNYADSVKGRFTISRDNSKNTLYLQMNSLRAEDTAVYYCAARFTSEEYWGQGTLVTVSSEPKSSDKTHTCPPCPAPEAEGAPSVFLFPPKPKDTLMISRTPEVTCVVVDVSHEDPEVKFNWYVDGVEVHNAKTKPREEQYNSTYRVVSVLTVLHQDWLNGKEYKCKVSNKALPSSIEKTISKAKGQPREPQVYTLPPSREEMTKNQVSLTCLVKGFYPSDIAVEWESNGQPENNYKTTPPVLDSDGSFFLYSKLTVDKSRWQQGNVFSCSVMHEALHNQYTQKSLSLSPG
# notes: Humanized VHH-Fc
# B18: 126_zu3 (Fc fusion)
# chain: B17 chain with Q44G, R45L
# notes: Humanized VHH-Fc
# B19: 126_zu5 (Fc fusion)
# chain: B17 chain with A40P, Q43K
# notes: Humanized VHH-Fc
# Target: T1, human DLL3
# Experiment: ELISA
row,binding result,Binder
1,no binding,B1
2,no binding,B2
3,no binding,B3
4,no binding,B4
5,binds,B5
6,binds,B6
7,binds,B7
8,no binding,B8
9,binds,B9
10,no binding,B10
11,no binding,B11
12,no binding,B12
13,binds,B13
14,binds,B14
15,binds,B15
16,binds,B16

# Target: T2, mouse DLL3
# Experiment: ELISA
row,binding result,Binder
1,no binding,B1
2,no binding,B2
3,no binding,B3
4,no binding,B4
5,no binding,B5
6,no binding,B6
7,no binding,B7
8,no binding,B8
9,no binding,B10
10,no binding,B11
11,no binding,B12
12,no binding,B17
13,no binding,B18
14,no binding,B19

# Target: T3, DLL3 on cells (SHP-77, NCI-H82, …)
# Experiment: flow cytometry on SHP-77 cells, Geomeans RL1-H
binding result,EC50 (read off the curve) [nM],Binder
binds,–,B13
binds,–,B14
binds,–,B16
–,~0.1,B17
–,~0.1,B18
–,~0.1,B19
